Measurements taken from patent US20180155451A1 (published 2018).
Like-named read-outs stand apart in the source and are kept apart here.

T1: FcγRIIb (human, UniProt P31994 43-217)
T1 construct: extracellular domain; also called FcgRIIb; 2b; not shown: His tag at the C terminus
T1 sequence (looked up): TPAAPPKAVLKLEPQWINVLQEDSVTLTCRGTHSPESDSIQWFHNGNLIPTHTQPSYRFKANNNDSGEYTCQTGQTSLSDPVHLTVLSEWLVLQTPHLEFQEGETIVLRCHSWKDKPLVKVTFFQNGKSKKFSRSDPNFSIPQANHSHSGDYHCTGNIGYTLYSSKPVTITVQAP

T2: FcγRIIa H (human, UniProt P12318 34-217)
T2 construct: extracellular domain; Soluble His-tagged extracellular domain expressed in FreeStyle293 cells; also called FcγRIIa type H; FcgRIIa H; not shown: His tag attached to the C terminus
T2 sequence (looked up): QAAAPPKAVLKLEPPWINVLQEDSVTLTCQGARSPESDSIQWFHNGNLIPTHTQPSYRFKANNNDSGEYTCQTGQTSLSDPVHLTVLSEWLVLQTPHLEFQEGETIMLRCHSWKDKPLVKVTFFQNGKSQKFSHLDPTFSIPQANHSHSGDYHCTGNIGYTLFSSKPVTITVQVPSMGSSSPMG

T3: FcγRIIb (human, UniProt P31994 43-217)
T3 construct: extracellular domain; Soluble His-tagged extracellular domain expressed in FreeStyle293 cells; also called FcgRIIb; 2b; not shown: His tag attached to the C terminus
T3 sequence (looked up): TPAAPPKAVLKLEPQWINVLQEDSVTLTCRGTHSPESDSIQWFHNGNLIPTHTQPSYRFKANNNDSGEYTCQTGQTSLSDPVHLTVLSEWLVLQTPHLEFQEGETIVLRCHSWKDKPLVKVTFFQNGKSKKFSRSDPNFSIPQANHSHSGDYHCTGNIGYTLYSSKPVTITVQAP


Columns and labels:
FcγRIa [1] = biological target: T4, FcγRIa (human, UniProt P12314 16-292); experiment: SPR (Biacore), antibody captured, FcγR as analyte; binding as % of GpH7-A5/GpH7-B3/GpL16-k0
T4 construct: extracellular domain; also called FcgRI; 1a; not shown: His tag at the C terminus

FcγRIIb [2] = biological target: T1, FcγRIIb; experiment: as above
FcγRIa [3] = biological target: T4, FcγRIa; experiment: SPR (Biacore); He/Con_1a (FcγRIa) divided by He/Con_2b (FcγRIIb)
FcγRIa [4] = biological target: T4, FcγRIa; experiment: SPR (Biacore), antibody captured, FcγR as analyte; binding as % of GpH7-A5/GpH7-B3/GpL16-k0; remark: listed apart in the source
FcγRIIb [5] = biological target: T1, FcγRIIb; experiment: as above; remark: listed apart in the source
FcγRIIa H [6] = biological target: T2, FcγRIIa H; experiment: SPR (Biacore), captured antibody, FcγR analyte; relative to GpH7-A5/GpH7-B3/GpL16-k0 = 100
Procedure: (§1) The heterodimerized antibodies He Abs in which one of the H chains was introduced with an alteration were assayed for their binding activities to each activating FcγR and inhibitory FcγR according to the method described in Example 4. […] The activating FcγRs in FIGS. 26, 27, 28, and 29 are FcγRIa, FcγRIIa (R), FcγRIIa (H), and FcγRIIIa, respectively.
(§2) Analysis of interaction between objective antibody and the FcγR was carried out using Biacore T100 (GE Healthcare). HBS-EP+ (GE Healthcare) was used as the running buffer, and the measurement temperature was set to 25° C. Chips produced by immobilizing the antigen peptide by the amine coupling method to a Series S Sencor Chip CM5 (GE Healthcare), or alternatively, chips produced by allowing preliminarily biotinylated antigen peptides to interact with and immobilize onto a Series S Sensor Chip SA (certified) (GE Healthcare) were used. Antibodies of interest were captured onto an antigen peptide-immobilized chip, and allowed to interact to each FcγR diluted with running buffer. To regenerate and repeatedly use the chip, the antibodies captured on the chip were washed off by reacting 10 mM glycine-HCl, pH 1.5.

FcγRIIb [7] = biological target: T3, FcγRIIb; experiment: as above
Procedure: as §1, §2

FcγRIIa H [8] = biological target: T2, FcγRIIa H; experiment: SPR (Biacore); He/Con_2aH divided by He/Con_2b (FcγRIIb) of the same antibody
Procedure: as §1, §2

T4 sequence (P12314 16-292): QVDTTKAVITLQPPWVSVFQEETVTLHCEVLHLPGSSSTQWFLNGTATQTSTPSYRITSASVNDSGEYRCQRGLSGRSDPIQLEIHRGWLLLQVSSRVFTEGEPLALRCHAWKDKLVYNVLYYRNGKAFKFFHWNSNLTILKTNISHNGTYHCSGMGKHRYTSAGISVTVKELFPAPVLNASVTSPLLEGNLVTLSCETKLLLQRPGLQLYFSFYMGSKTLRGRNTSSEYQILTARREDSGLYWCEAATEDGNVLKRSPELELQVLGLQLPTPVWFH

He/Con_1a (FcγRIa [1]) | He/Con_2b (FcγRIIb [2]) | Ia/IIb He_1a/2b (FcγRIa [3]) [ratio] | He/Con_1a (FcγRIa [4]) | He/Con_2b (FcγRIIb [5]) | He/Con_2aH (FcγRIIa H [6]) | He/Con_2b (FcγRIIb [7]) | He_2aH/2b (FcγRIIa H [8]) [ratio] | Binder
98.5 % of control | 144 % of control | 0.68 | 98.5 % of control | 144 % of control | – | – | – | GpH7-A5/GpH7-B3 variant L328_02A/GpL16-k0 (antibody, human IgG1, kappa, heterodimerized IgG1; alteration in the GpH7-B3 H chain only; also called He Ab) heavy 1: not shown heavy 2: not shown light: DIVMTQSPLSLPVTPGEPASISCQASESLVHSNRNTYLHWYLQKPGQSPQLLIYKVSNRFSGVPDRFSGSGSGTDFTLKISRVEAEDVGVYYCSQNTHVPPTFGQGTKVEIERTVAAPSVFIFPPSDEQLKSGTASVVCLLNNFYPREAKVQWKVDNALQSGNSQESVTEQDSKDSTYSLSSTLTLSKADYEKHKVYACEVTHQGLSSPVTKSFNRGEC
– | – | – | – | – | 56.8 relative (control = 100) | 101 relative (control = 100) | 0.56 | GpH7-A5/GpH7-B3 variant N325_01G/GpL16-k0 (antibody, human IgG1, kappa, Heterodimerized anti-glypican-3 IgG1; mutation in the GpH7-B3 H chain only; also called He Ab) heavy 1: not shown heavy 2: not shown light: DIVMTQSPLSLPVTPGEPASISCQASESLVHSNRNTYLHWYLQKPGQSPQLLIYKVSNRFSGVPDRFSGSGSGTDFTLKISRVEAEDVGVYYCSQNTHVPPTFGQGTKVEIERTVAAPSVFIFPPSDEQLKSGTASVVCLLNNFYPREAKVQWKVDNALQSGNSQESVTEQDSKDSTYSLSSTLTLSKADYEKHKVYACEVTHQGLSSPVTKSFNRGEC
– | – | – | – | – | 99.4 relative (control = 100) | 100 relative (control = 100) | – | GpH7-A5/GpH7-B3 variant S337_15Y/GpL16-k0 (antibody, human IgG1, kappa, Heterodimerized anti-glypican-3 IgG1; mutation in the GpH7-B3 H chain only; also called He Ab) heavy 1: not shown heavy 2: not shown light: DIVMTQSPLSLPVTPGEPASISCQASESLVHSNRNTYLHWYLQKPGQSPQLLIYKVSNRFSGVPDRFSGSGSGTDFTLKISRVEAEDVGVYYCSQNTHVPPTFGQGTKVEIERTVAAPSVFIFPPSDEQLKSGTASVVCLLNNFYPREAKVQWKVDNALQSGNSQESVTEQDSKDSTYSLSSTLTLSKADYEKHKVYACEVTHQGLSSPVTKSFNRGEC
– | – | – | – | – | 97.6 relative (control = 100) | 104 relative (control = 100) | – | GpH7-A5/GpH7-B3 variant K334_20W/GpL16-k0 (antibody, human IgG1, kappa, Heterodimerized anti-glypican-3 IgG1; mutation in the GpH7-B3 H chain only; also called He Ab) heavy 1: not shown heavy 2: not shown light: DIVMTQSPLSLPVTPGEPASISCQASESLVHSNRNTYLHWYLQKPGQSPQLLIYKVSNRFSGVPDRFSGSGSGTDFTLKISRVEAEDVGVYYCSQNTHVPPTFGQGTKVEIERTVAAPSVFIFPPSDEQLKSGTASVVCLLNNFYPREAKVQWKVDNALQSGNSQESVTEQDSKDSTYSLSSTLTLSKADYEKHKVYACEVTHQGLSSPVTKSFNRGEC
99 % of control | 149 % of control | 0.66 | 99 % of control | 149 % of control | – | – | – | GpH7-A5/GpH7-B3 variant L328_13S/GpL16-k0 (antibody, human IgG1, kappa, heterodimerized IgG1; alteration in the GpH7-B3 H chain only; also called He Ab) heavy 1: not shown heavy 2: not shown light: DIVMTQSPLSLPVTPGEPASISCQASESLVHSNRNTYLHWYLQKPGQSPQLLIYKVSNRFSGVPDRFSGSGSGTDFTLKISRVEAEDVGVYYCSQNTHVPPTFGQGTKVEIERTVAAPSVFIFPPSDEQLKSGTASVVCLLNNFYPREAKVQWKVDNALQSGNSQESVTEQDSKDSTYSLSSTLTLSKADYEKHKVYACEVTHQGLSSPVTKSFNRGEC
97.9 % of control | 219 % of control | 0.45 | 97.9 % of control | 219 % of control | – | – | – | GpH7-A5/GpH7-B3 variant L328_04F/GpL16-k0 (antibody, human IgG1, kappa, heterodimerized IgG1; alteration in the GpH7-B3 H chain only; also called He Ab) heavy 1: not shown heavy 2: not shown light: DIVMTQSPLSLPVTPGEPASISCQASESLVHSNRNTYLHWYLQKPGQSPQLLIYKVSNRFSGVPDRFSGSGSGTDFTLKISRVEAEDVGVYYCSQNTHVPPTFGQGTKVEIERTVAAPSVFIFPPSDEQLKSGTASVVCLLNNFYPREAKVQWKVDNALQSGNSQESVTEQDSKDSTYSLSSTLTLSKADYEKHKVYACEVTHQGLSSPVTKSFNRGEC
98.7 % of control | 142 % of control | 0.7 | 98.7 % of control | 142 % of control | – | – | – | GpH7-A5/GpH7-B3 variant L328_06M/GpL16-k0 (antibody, human IgG1, kappa, heterodimerized IgG1; alteration in the GpH7-B3 H chain only; also called He Ab) heavy 1: not shown heavy 2: not shown light: DIVMTQSPLSLPVTPGEPASISCQASESLVHSNRNTYLHWYLQKPGQSPQLLIYKVSNRFSGVPDRFSGSGSGTDFTLKISRVEAEDVGVYYCSQNTHVPPTFGQGTKVEIERTVAAPSVFIFPPSDEQLKSGTASVVCLLNNFYPREAKVQWKVDNALQSGNSQESVTEQDSKDSTYSLSSTLTLSKADYEKHKVYACEVTHQGLSSPVTKSFNRGEC
